The subject of data set [1] is female rats. In words: Efficacy in vivo on preclinical model (Lordoz test): proceptive behavior of ovarioectomized, hormonally stimulated females. The settings on record: 100 mcg/rat, progesterone 0.5 mg/rat. As for the experimental part:
Investigation of the Efficacy of the Peptides of the Invention as a Means of Stimulating the Genital and Sexual Functions
In order to confirm the efficacy as a means of stimulating the genital and sexual functions, peptides according to the invention were synthesized, in particular the tripeptide Thr-Lys-Hyp, the pentapeptide Thr-Lys-Hyp-Arg-Hyp (SEQ ID NO: 12), and the hexapeptide Thr-Lys-Hyp-Arg-Hyp-Phe (SEQ ID NO: 13), and tests were performed as to the efficacy in vivo on the relevant preclinical model (Lordoz test). Furthermore, the efficacy of the group of peptides Thr-Lys-Pro, Thr-Lys-Pro-Arg-Pro (SEQ ID NO: 6), and Thr-Lys-Pro-Arg-Pro-Phe (SEQ ID NO: 7) was also investigated.
The efficacy of the aforementioned groups of peptides was investigated in a dose of 100 mcg/rat with respect to the sexual behavior of female rats. The sexual behavior was registered over the course of 0-16 days in ovarioectomized, hormonally stimulated females in the case of direct contact with sexually active males and in the case when no such contact was possible. […] The results testify to an increase in sexual motivation under the action of the peptides Thr-Lys-Hyp, Thr-Lys-Hyp-Arg-Hyp (SEQ ID NO: 12), and Thr-Lys-Hyp-Arg-Hyp-Phe (SEQ ID NO: 13).

Data set [2] can be described thus: Stability of liquid pharmaceutical forms (peptide 0.2 %, benzalkonium chloride 0.01 %, water) during storage; single and total impurities. The format is physicochemical. An excerpt: Investigations of the Stability of Pharmaceutical Forms Containing Peptides Having the Property of Stimulating the Genital and Sexual Functions
This experiment investigated the stability of compositions containing peptides according to the invention. The results of the investigations are illustrated by the example of several peptides according to the invention containing hydroxyproline, in particular Thr-Lys-Hyp […], Thr-Lys-Hyp-Arg-Hyp (SEQ ID NO: 13), Thr-Lys-Hyp-Arg-Hyp-Phe and Thr-Lys-Hyp-Arg-Hyp-Gly-Hyp (SEQ ID NO: 14).
The peptides described in RU2507212 were also obtained, in particular Thr-Lys-Pro, Thr-Lys-Pro-Arg-Pro (SEQ ID NO: 6), Thr-Lys-Pro-Arg-Pro-Phe (SEQ ID NO: 7) and Thr-Lys-Pro-Arg-Pro-Gly-Pro (SEQ ID NO: 1).
From the compounds obtained, a liquid pharmaceutical form (a solution) was prepared, including the peptide and the preservative benzalkonium chloride with the following ratio of components: 0.2 and 0.01 mass %, respectively, water the rest. Samples were placed in storage at two temperature regimes, namely, +4° C. and +25° C. Investigation of the stability of the peptides was carried out after 1, 3, 6, 12, and 24 months of storage. In the investigation of the samples for stability, the quantity of single impurities and the total quantity of impurities were evaluated, testifying to the degradation of the peptides. The pharmaceutical requirements of the company for impurities are: any single impurity, not more than 1.5%; total content of impurities, not more than 3.0%. If the content of impurities exceeded the above indicated values, the pharmaceutical form was deemed to have failed the test for stability.

[3] abbreviates: stored for 1 month at +4° C., solution 0.2 mass % peptide, 0.01 mass % benzalkonium chloride.
The mark [4] stands for this setting: stored for 1 month at +25° C., solution 0.2 mass % peptide, 0.01 mass % benzalkonium chloride.
The mark [5] stands for this setting: stored for 12 months at +25° C.
The mark [6] stands for this setting: stored for 24 months at +25° C.

Non-standard residues stand in square brackets, D forms with d. No end group written: not given here. Hyp = O=C(O)[C@@H]1C[C@@H](O)CN1

Regarding “Thr-Lys-Hyp-Arg-Hyp (TK[Hyp]R[Hyp]) [pentapeptide of the invention containing hydroxyproline]”, the “Number of proceptive behavior acts” value in data set [1] (day 0 of giving the drug) is listed as 13 ± 4; in data set [1] (day 5 of giving the drug), 38 ± 4; in data set [1] (day 11 of giving the drug), 36 ± 4; in data set [1] (day 16 of giving the drug), 36 ± 6. In addition, the Single impurities in data set [2] (setting [3]) is recorded as 0.03%; in data set [2] (setting [4]) it was 0.046%; in data set [2] (stored for 3 months at +4° C.) it was 0.03%; in data set [2] (stored for 3 months at +25° C.) it was 0.047%; in data set [2] (stored for 6 months at +4° C.), 0.04%; in data set [2] (stored for 6 months at +25° C.), 0.1%. Besides, the Single impurities in data set [2] (stored for 12 months at +4° C.) was 0.07%; in data set [2] (setting [5]) it was 0.2%; in data set [2] (stored for 24 months at +4° C.) it was 0.1%; in data set [2] (setting [6]) it was 0.9%. The Total impurities in data set [2] (setting [3]) was determined as 0.09%; in data set [2] (setting [4]), 0.14%; in data set [2] (stored for 3 months at +4° C.), 0.09%; in data set [2] (stored for 3 months at +25° C.), 0.15%; in data set [2] (stored for 6 months at +4° C.), 0.1%; in data set [2] (stored for 6 months at +25° C.), 0.7%. Moreover, the Total impurities is listed as 0.2% in data set [2] (stored for 12 months at +4° C.), 0.9% in data set [2] (setting [5]), 0.7% in data set [2] (stored for 24 months at +4° C.) and 1.2% in data set [2] (setting [6]).
Consider “Thr-Lys-Pro-Arg-Pro (TKPRP; not fully specified; printed as Thr-Lys-Pro-Arg-Pro) [pentapeptide described in RU2507212, comparison peptide, reference compound]”, for which the “Number of proceptive behavior acts” value in data set [1] (day 0 of giving the drug) came out at 12 ± 4; in data set [1] (day 5 of giving the drug), 15 ± 4; in data set [1] (day 11 of giving the drug), 24 ± 4; in data set [1] (day 16 of giving the drug) it was 36 ± 6. The Single impurities amounted to 0.042% in data set [2] (setting [3]); 0.067% in data set [2] (setting [4]); 0.042% in data set [2] (stored for 3 months at +4° C.); 0.19% in data set [2] (stored for 3 months at +25° C.); 0.09% in data set [2] (stored for 6 months at +4° C.); 1.4% in data set [2] (stored for 6 months at +25° C.). Moreover, the Single impurities in data set [2] (stored for 12 months at +4° C.) was found to be 0.8%; in data set [2] (setting [5]), 4%; in data set [2] (stored for 24 months at +4° C.), 1.1%. Moreover, the Total impurities in data set [2] (setting [3]) was 0.09%; in data set [2] (setting [4]), 0.54%; in data set [2] (stored for 3 months at +4° C.) it was 0.93%; in data set [2] (stored for 3 months at +25° C.), 0.9%; in data set [2] (stored for 6 months at +4° C.) it was 1%; in data set [2] (stored for 6 months at +25° C.) it was 3.0%. The Total impurities turned out to be 1.5% in data set [2] (stored for 12 months at +4° C.), 6% in data set [2] (setting [5]) and 1.9% in data set [2] (stored for 24 months at +4° C.).
With Thr-Lys-[Hyp], the “Number of proceptive behavior acts” value is 12 ± 4 in data set [1] (day 0 of giving the drug), 25 ± 4 in data set [1] (day 5 of giving the drug), 24 ± 4 in data set [1] (day 11 of giving the drug) and 26 ± 4 in data set [1] (day 16 of giving the drug). The Single impurities is listed as 0.034% in data set [2] (setting [3]); 0.052% in data set [2] (setting [4]); 0.035% in data set [2] (stored for 3 months at +4° C.); 0.052% in data set [2] (stored for 3 months at +25° C.); 0.036% in data set [2] (stored for 6 months at +4° C.); 0.2% in data set [2] (stored for 6 months at +25° C.). Moreover, the Single impurities in data set [2] (stored for 12 months at +4° C.) amounted to 0.09%; in data set [2] (setting [5]), 0.3%; in data set [2] (stored for 24 months at +4° C.) it was 0.1%; in data set [2] (setting [6]), 0.8%. The Total impurities in data set [2] (setting [3]) is given as 0.09%; in data set [2] (setting [4]) it was 0.11%; in data set [2] (stored for 3 months at +4° C.), 0.11%; in data set [2] (stored for 3 months at +25° C.), 0.9%; in data set [2] (stored for 6 months at +4° C.), 0.2%; in data set [2] (stored for 6 months at +25° C.), 1%. Moreover, the Total impurities turned out to be 0.3% in data set [2] (stored for 12 months at +4° C.), 1.2% in data set [2] (setting [5]), 0.9% in data set [2] (stored for 24 months at +4° C.) and 1.8% in data set [2] (setting [6]).
With “Thr-Lys-Hyp-Arg-Hyp-Phe (TK[Hyp]R[Hyp]F) [hexapeptide of the invention containing hydroxyproline]”, the “Number of proceptive behavior acts” value in data set [1] (day 0 of giving the drug) is reported as 14 ± 4; in data set [1] (day 5 of giving the drug), 24 ± 4; in data set [1] (day 11 of giving the drug) it was 23 ± 4; in data set [1] (day 16 of giving the drug), 24 ± 4. Further, the Single impurities in data set [2] (setting [3]) was found to be 0.067%; in data set [2] (setting [4]), 0.032%; in data set [2] (stored for 3 months at +4° C.), 0.068%; in data set [2] (stored for 3 months at +25° C.) it was 0.033%; in data set [2] (stored for 6 months at +4° C.), 0.08%; in data set [2] (stored for 6 months at +25° C.) it was 0.09%. Further, the Single impurities in data set [2] (stored for 12 months at +4° C.) came to 0.1%; in data set [2] (setting [5]), 0.4%; in data set [2] (stored for 24 months at +4° C.) it was 0.9%; in data set [2] (setting [6]), 1.3%. For the same substance, the Total impurities in data set [2] (setting [3]) was determined as 0.15%; in data set [2] (setting [4]), 0.09%; in data set [2] (stored for 3 months at +4° C.) it was 0.15%; in data set [2] (stored for 3 months at +25° C.) it was 0.09%; in data set [2] (stored for 6 months at +4° C.) it was 0.2%; in data set [2] (stored for 6 months at +25° C.), 0.6%. The Total impurities in data set [2] (stored for 12 months at +4° C.) came to 0.3%; in data set [2] (setting [5]) it was 0.8%; in data set [2] (stored for 24 months at +4° C.) it was 1.9%; in data set [2] (setting [6]), 2.7%.
Take “Thr-Lys-Hyp-Arg-Hyp-Gly-Hyp (TK[Hyp]R[Hyp]G[Hyp]) [peptide according to the invention containing hydroxyproline]”: the Single impurities is 0.049% in data set [2] (setting [3]); 0.069% in data set [2] (setting [4]); 0.05% in data set [2] (stored for 3 months at +4° C.); 0.07% in data set [2] (stored for 3 months at +25° C.); 0.06% in data set [2] (stored for 6 months at +4° C.); 0.09% in data set [2] (stored for 6 months at +25° C.). Further, the Single impurities is reported as 0.09% in data set [2] (stored for 12 months at +4° C.), 0.3% in data set [2] (setting [5]), 0.1% in data set [2] (stored for 24 months at +4° C.) and 1.2% in data set [2] (setting [6]). Also, the Total impurities in data set [2] (setting [3]) stood at 0.12%; in data set [2] (setting [4]), 0.14%; in data set [2] (stored for 3 months at +4° C.) it was 0.12%; in data set [2] (stored for 3 months at +25° C.) it was 0.5%; in data set [2] (stored for 6 months at +4° C.), 0.14%; in data set [2] (stored for 6 months at +25° C.) it was 0.9%. Besides, the Total impurities in data set [2] (stored for 12 months at +4° C.) is given as 0.3%; in data set [2] (setting [5]) it was 1.1%; in data set [2] (stored for 24 months at +4° C.), 1.1%; in data set [2] (setting [6]), 2.6%.
With “Thr-Lys-Pro-Arg-Pro-Gly-Pro (TKPRPGP; not fully specified; printed as Thr-Lys-Pro-Arg-Pro-Gly-Pro) [heptopeptide “Selank”, a synthetic analogue of the endogenous peptide tuftsin, reference compound]”, the Single impurities amounted to 0.05% in data set [2] (setting [3]); 0.065% in data set [2] (setting [4]); 0.07% in data set [2] (stored for 3 months at +4° C.); 0.9% in data set [2] (stored for 3 months at +25° C.); 0.8% in data set [2] (stored for 6 months at +4° C.); 1.7% in data set [2] (stored for 6 months at +25° C.). Moreover, the Single impurities in data set [2] (stored for 12 months at +4° C.) came out at 1%; in data set [2] (stored for 24 months at +4° C.), 2%. Also, the Total impurities in data set [2] (setting [3]) stood at 0.17%; in data set [2] (setting [4]), 0.13%; in data set [2] (stored for 3 months at +4° C.) it was 0.2%; in data set [2] (stored for 3 months at +25° C.), 1.2%; in data set [2] (stored for 6 months at +4° C.), 1.4%; in data set [2] (stored for 6 months at +25° C.) it was 3.1%. For the same substance, the Total impurities in data set [2] (stored for 12 months at +4° C.) is recorded as 1.7%; in data set [2] (stored for 24 months at +4° C.), 3.7%.

The values are drawn from patent US10836794B2, “Group of peptides for treating female sexual dysfunction” (“IVIX” Ltd., priority 2016, dated 2020).
